B1: Islet amyloid polypeptide (Homo sapiens), P10997 (parent)
chain: MGILKLQVFLIVLSVALNHLKATPIESHQVEKRKCNTATCATQRLANFLVHSSNNFGAILSSTNVGSNTYGKRNAVEVLKREPLNYLPL

The assay covers variants of B1. Conditions: with bace1_human BACE1, P56817.
Sequence of bace1_human BACE1, P56817 (P56817 whole entry): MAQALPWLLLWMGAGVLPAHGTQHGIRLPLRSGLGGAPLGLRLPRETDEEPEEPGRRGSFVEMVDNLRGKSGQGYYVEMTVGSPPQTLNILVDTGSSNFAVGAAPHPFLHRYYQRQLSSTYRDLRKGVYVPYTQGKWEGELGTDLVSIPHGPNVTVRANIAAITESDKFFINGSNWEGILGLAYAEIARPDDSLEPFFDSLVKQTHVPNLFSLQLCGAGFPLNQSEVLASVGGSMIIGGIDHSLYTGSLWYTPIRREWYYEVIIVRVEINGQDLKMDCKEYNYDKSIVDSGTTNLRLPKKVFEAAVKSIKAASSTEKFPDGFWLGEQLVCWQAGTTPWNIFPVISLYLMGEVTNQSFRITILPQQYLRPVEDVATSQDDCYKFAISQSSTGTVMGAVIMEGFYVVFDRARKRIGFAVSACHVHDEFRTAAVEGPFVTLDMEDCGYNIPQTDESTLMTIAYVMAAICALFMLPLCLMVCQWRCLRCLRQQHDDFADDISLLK
As for MGILKLQVFLIVLSVALNHLKATPIESHQVEKRKCNTATCATQRLANFLVHSSNNKGAILSSTNVGSNTYGKRNAVEVLKREPLNYLPL [F56K], the “effect of a mutation on the interaction” value is recorded as “with no effect”.

Source of the values: IntAct's records for PubMed 26840340.
